Four molecules from publication PMC10992505, “Customized exogenous ferredoxin functions as an efficient electron carrier” (Bioresources and Bioprocessing, 2021) can be followed below.

The chains are these.
B1: KshA, Rieske-type oxygenase of 3-ketosteroid-9-hydroxylase from Rhodococcus erythropolis (enzyme)
chain: MALGTGPLTTTDASTQSGAGEEIREIEAAAPPARFARGWHCLGLSNTYRDGQPHQIEAFGTSLVVFADSKGDIKILDAYCRHMGGNLAHGTVKGDSIACPFHDWRWGGNGKCTAIPYARRVPPLAKTRAWTTLEKNGQLFVWHDPQGNPPPAEVTIPDIEGFGSDEWSDWSWNTLTIEGSHCREIVDNVVDMAHFFYVHYSFPKYFKNIFEGHVASQYMESVGREDIISGTNYGDPNAVLRSDASYFGPSYMIDWIKSEANGQIIETVLINCHYPISNNAFVLQYGAMVKKLPGMDDESTAAMAAQFTEGVEMGFLQDVEIWKNKAPIDNPLLSEEDGPVYQLRRWYNQFYTDVENVTEDMTKRFEFEIDTTRAVESWKREVAENVAARDAQALETTS
B3: Drosophila melanogaster Fdx2 (DmFdx2) (natural protein, UniProt Q8SZA8 30-152, looked up)
chain: STGLALKTKDVVNITFVRANGDKIKTSGKVGDSLLDVVVNNNVDLDGFGACEGTLTCSTCHLIFKTSDFEKLPDKPGDEELDMLDLAYELTDTSRLGCQITLSKDMEGLEVHVPSTINDARAA
notes: Drosophila melanogaster ferredoxin 2 (Fdx2), plant-type [2Fe-2S] ferredoxin; Carries a [2Fe-2S] cluster; Cloning into pET28a at NdeI would place the His6 tag at the N-terminus (surmised); also called free Fdx; plant-type Fdx; source: E. coli BL21(DE3), purified (Ni-NTA, Resource Q anion exchange)

Series [1] concerns the target T1, PRF (CYP116B46 reductase domain, V465-L779) (Tepidiphilus thermophilus, UniProt A0A0K6ITW2, C736H/C766H, form not given).
T1 construct: gene Ga0061068_103196
The series is described as follows: NADH oxidation, absorbance […] nm. It is filed as biochemical.

In series [2] the test system is T2, TDO (TDO_R; toluene 2,3-dioxygenase reductase with TDO-Fdx).
T2 construct: gene todA
The following applies: electron acceptor not stated; MTDO, plant-type cluster; fusion numbering.

The target of series [3] is B3. Description: ITC; 0.2 mM DmFdx2 in the syringe, 2 uL injections into 0.02 mM KshA or PRF in the cell; 20 mM HEPES pH 7.4, 25 °C; one-site binding model. The following applies: both partners purified.
Substrate in the series “purified protein”: NC(=O)C1=CN([C@@H]2O[C@H](COP(=O)(O)OP(=O)(O)OC[C@H]3O[C@@H](n4cnc5c(N)ncnc54)[C@H](O)[C@@H]3O)[C@@H](O)[C@H]2O)C=CC1
Description: purified protein. It is filed as biochemical, Tepidiphilus thermophilus.

For series [4], the target named is PRF, reductase domain and Fdx (V465-L779) of Tepidiphilus thermophilus self-sufficient P450 CYP116B46 (Tepidiphilus thermophilus). The series is described as follows: ITC; 0.2 mM DmFdx2 in the syringe, 2 uL injections into 0.02 mM KshA or PRF in the cell; 20 mM HEPES pH 7.4, 25 °C; one-site binding model. In general terms: ITC needs no label: the signal is the heat of the interaction.

Series [5] addresses B1. The description is as above. The following applies: both partners purified.

T1 sequence (A0A0K6ITW2 entry or part of it C736H/C766H, form open): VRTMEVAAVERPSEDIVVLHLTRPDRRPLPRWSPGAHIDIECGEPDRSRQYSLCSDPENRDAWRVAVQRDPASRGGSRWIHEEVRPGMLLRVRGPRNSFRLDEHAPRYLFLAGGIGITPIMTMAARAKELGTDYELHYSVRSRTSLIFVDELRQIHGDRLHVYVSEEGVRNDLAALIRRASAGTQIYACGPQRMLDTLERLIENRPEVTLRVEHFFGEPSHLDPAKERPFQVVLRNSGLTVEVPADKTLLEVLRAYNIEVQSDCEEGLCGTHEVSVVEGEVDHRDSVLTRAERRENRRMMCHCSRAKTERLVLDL

For `NC(=O)C1=CN([C@@H]2O[C@H](COP(=O)(O)OP(=O)(O)OC[C@H]3O[C@@H](n4cnc5c(N)ncnc54)[C@H](O)[C@@H]3O)[C@@H](O)[C@H]2O)C=CC1` [NADH], the Km in series [1] was 63.1 ± 2.37 µM; in series [2], 63.5 ± 2.95 µM.
Take B1: the Ka in series [3] is 2.1e+07 M⁻¹.

B2: (Tepidiphilus thermophilus) (protein)
chain: VRTMEVAAVERPSEDIVVLHLTRPDRRPLPRWSPGAHIDIECGEPDRSRQYSLCSDPENRDAWRVAVQRDPASRGGSRWIHEEVRPGMLLRVRGPRNSFRLDEHAPRYLFLAGGIGITPIMTMAARAKELGTDYELHYSVRSRTSLIFVDELRQIHGDRLHVYVSEEGVRNDLAALIRRASAGTQIYACGPQRMLDTLERLIENRPEVTLRVEHFFGEPSHLDPAKERPFQVVLRNSGLTVEVPADKTLLEVLRAYNIEVQSDCEEGLCGTCEVSVVEGEVDHRDSVLTRAERRENRRMMCCCSRAKTERLVLDL
With B2, in the series “purified protein”, the Km came out at 39.11 ± 1.49 µM, the kcat came out at 66.43 ± 0.34 s⁻¹ and the kcat/Km was determined as 1.7e+06 M⁻¹ s⁻¹.
As for B3, in series [4], the Ka was found to be 1.5e+07 M⁻¹, the dH is -8 kJ/mol and the stoichiometry N was determined as 0.75. Moreover, in series [5], the dH is -6 ± 0.13 kJ/mol and the “stoichiometry N” value was 0.4 ± 0.02.

Broadly, the Km is the substrate concentration at which the rate is half of its maximum. For orientation: kcat means the number of substrate molecules converted per active site and unit of time at saturation. The term kcat/Km denotes the second-order rate constant that governs catalysis at low substrate concentration. A word on the stoichiometry N: it is a count of units in the complex or per binding partner.
